Test results as given in patent US20080131434A1 (ONCOMED PHARMACEUTICALS, published 2008).

Key:
[1] = target: T1, NOTCH1 EGF 1-3 Fc fusion protein (human, UniProt P46531 19-139, limits assumed); assay: Western blot, SDS-PAGE of Fc fusion proteins
T1 construct: domain: EGF 1-3; Member of the nested deletion series; not shown: Fc
T1 sequence (looked up): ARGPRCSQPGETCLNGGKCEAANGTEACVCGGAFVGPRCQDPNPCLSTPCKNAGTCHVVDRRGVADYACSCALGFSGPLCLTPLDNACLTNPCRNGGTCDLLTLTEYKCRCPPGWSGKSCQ
Source text: (§1) FIG. 1: Epitope mapping of anti-NOTCH1 monoclonal antibodies that bind to non-ligand binding domains.
(§2) To identify antibodies that recognize specific non-ligand binding regions of the NOTCH receptor extracellular domains, epitope mapping was preformed. In certain embodiments, mammalian expression plasmid vectors comprising a CMV promoter upstream of polynucleotides that encode fragments of the extracellular NOTCH1 domain as Fc fusion proteins were generated using standard recombinant DNA technology. These fusion proteins included a series of NOTCH1 fragments containing a nested series of deletions of EGF domains 1-5 or 10-15. Recombinant proteins were then expressed in cultured mammalian cells by transient transfection. Twenty-four to 48 hours following transfection, cells were harvested and cell lysate protein separated on non-reducing SDS-PAGE acrylamide gels for Western blotting using antibodies from mice immunized with NOTCH1 antigen. […] All antibody affinities were determined by BIAcore.

[2] = target: T2, NOTCH1 EGF 5 Fc fusion protein (human, UniProt P46531 178-220, limits assumed); assay: Western blot, SDS-PAGE of Fc fusion proteins
T2 construct: domain: EGF 5; Member of the nested deletion series; also called EGF 5 alone; not shown: Fc
T2 chain (looked up): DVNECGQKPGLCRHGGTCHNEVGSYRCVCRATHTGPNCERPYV
Source text: as §1, §2

[3] = target: T3, NOTCH1 (construct used in the assay not stated) (human, UniProt P46531 19-220, limits assumed); assay: BIAcore; format and NOTCH1 construct not stated
T3 sequence (looked up): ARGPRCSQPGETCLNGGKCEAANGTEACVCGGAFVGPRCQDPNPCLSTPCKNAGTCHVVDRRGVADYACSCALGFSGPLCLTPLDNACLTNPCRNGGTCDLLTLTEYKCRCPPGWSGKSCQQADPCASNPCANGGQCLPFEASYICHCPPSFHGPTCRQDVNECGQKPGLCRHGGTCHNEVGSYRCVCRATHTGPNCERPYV

[4] = target: T4, EGF1; assay: Western blot of Fc fusion proteins of the antigen deletion series, non-reduced SDS-PAGE
T4 construct: member of the EGF 1-5 deletion series; also called NOTCH1 EGF 1 Fc fusion protein (deletion series)
T4 chain: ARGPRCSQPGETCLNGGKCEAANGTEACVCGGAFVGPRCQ
Source text: as §1, §2

[5] = target: T5, EGF1-2; assay: as above
T5 construct: member of the EGF 1-5 deletion series; also called NOTCH1 EGF 1-2 Fc fusion protein (deletion series)
T5 chain: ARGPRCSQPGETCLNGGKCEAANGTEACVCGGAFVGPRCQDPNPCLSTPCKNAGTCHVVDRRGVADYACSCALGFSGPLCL
Source text: as §1, §2

[6] = target: T6, EGF2-5; assay: as above
T6 construct: member of the EGF 1-5 deletion series; also called NOTCH1 EGF 2-5 Fc fusion protein (deletion series)
T6 chain: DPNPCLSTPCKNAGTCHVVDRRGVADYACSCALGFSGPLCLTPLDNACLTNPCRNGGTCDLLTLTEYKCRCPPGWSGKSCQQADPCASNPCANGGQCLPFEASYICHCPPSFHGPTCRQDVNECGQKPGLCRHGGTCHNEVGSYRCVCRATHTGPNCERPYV
Source text: as §1, §2

B1: anti-NOTCH1 monoclonal antibody 13M57 (antibody, mouse IgG1, kappa, V domains shown)
VH: EVNLVESGGDLVQPGGSLRLSCAASGFTFSSYTMSWVRQTPEKRLEWVAYIDYGGDFTSYSDAIRGRFTISRDNAKNTLYLQMSSLKSEDTAIYYCSRRRYDAMDYWGQGTSVIVSS
VL: DIQMTQSTSSLSASLGDRVTVSCSASQAISNYLNWYQQKPDGTLKLLIYYTTNLHSGVPSRFSGSGSGTDYSLTISNLEPEDIATYYCQQYSKFPWTFGGGTKLEIKR
notes: Murine hybridoma antibody raised against NOTCH1 EGF repeats 1-5; Conjugated to Alexa Fluor 647 for some FACS work; also called 13M30
Does B1 bind [1]?
Result: no binding

Does B1 bind [2]?
Result: no binding

And the Kd [3]?
Its Kd is 0.2 nM.

Does B1 bind [4]?
Result: no binding

Does B1 bind [5]?
Result: no binding

Does B1 bind [6]?
Result: binds
